Assay results published in patent publication US7727960B2, “C5a receptor antagonists” (Jerini AG, priority 2003, dated 2010).
Starred links: 1 amine or outer side, 2 acyl side, 3 side chain; linkers in the order of their positions; H or OH if unused. Positions of bridges follow the written chain, without caps; N, C: chain ends. Non-standard residues stand in square brackets, D forms with d. No end group written: not given here. 2‑Acetamido‑1‑Methyl‑Glucuronyl = 2-Acetamido-1-methyl-glucuronyl N-terminal group; Ecp = His(tau-4-methoxybenzyl), COc1ccc(Cn2cnc(C[C@H](N[*:1])C(=O)[*:2])c2)cc1; Edn = Cys(CH2-CH2-4-pyridyl), O=C([C@H](CSCCc1ccncc1)N[*:1])[*:2]; XX1 = 2-Amino-3-(4-piperidinyl)propionic acid; Ebd = Cys(Et), CCSC[C@H](N[*:1])C(=O)[*:2]; Phe(4-Me) = Cc1ccc(C[C@H](N)C(=O)O)cc1; 1Nal = N[C@@H](Cc1cccc2ccccc12)C(=O)O; 2Nal = N[C@@H](Cc1ccc2ccccc2c1)C(=O)O; XX2 = 4-guanidyl-piperidinyl-alanine; 4Pal = N[C@@H](Cc1ccncc1)C(=O)O; 2Thi = N[C@@H](Cc1cccs1)C(=O)O; dCha = N[C@H](CC1CCCCC1)C(=O)O; dChg = N[C@@H](C(=O)O)C1CCCCC1; Phg = N[C@H](C(=O)O)c1ccccc1; hLeu = CC(C)CC[C@H](N)C(=O)O; Eag = 2-Propargylglycine; Nle = CCCC[C@H](N)C(=O)O; Orn = NCCC[C@H](N)C(=O)O; Dab = NCC[C@H](N)C(=O)O

T1: human C5aR (CD88) (human, UniProt P21730 1-350)
T1 sequence (looked up): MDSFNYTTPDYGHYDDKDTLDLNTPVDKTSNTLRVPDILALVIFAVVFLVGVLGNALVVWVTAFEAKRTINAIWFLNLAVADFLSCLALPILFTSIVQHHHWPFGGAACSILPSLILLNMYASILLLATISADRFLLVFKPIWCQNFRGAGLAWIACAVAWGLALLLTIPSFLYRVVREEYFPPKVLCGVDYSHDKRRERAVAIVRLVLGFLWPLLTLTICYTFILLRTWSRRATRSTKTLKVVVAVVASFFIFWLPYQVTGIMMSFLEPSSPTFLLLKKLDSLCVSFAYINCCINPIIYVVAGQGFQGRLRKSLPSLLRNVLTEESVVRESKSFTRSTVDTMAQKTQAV

B1: Ac-Phe-[Orn-Pro-cha-Trp-Ebd] (peptide)
peptide: Ac-F[Orn]P[dCha]W[Ebd]
modifications: lactam (positions not given here); not fully specified (bridges); printed as Ac-Phe-[Orn-Pro-cha-Trp-Ebd]
B2: Ac-Phe-[Orn-Pro-cha-Trp-Thi] (peptide)
peptide: Ac-F[Orn]P[dCha]W[2Thi]
modifications: lactam (positions not given here); not fully specified (bridges); printed as Ac-Phe-[Orn-Pro-cha-Trp-Thi]
B3: Ac-Phe-[Orn-Pro-cha-Trp-Phe(4-Amidin)] (peptide)
peptide: Ac-F[Orn]P[dCha]W[Phe(4-Amidin)]
modifications: lactam (positions not given here); not fully specified (bridges); printed as Ac-Phe-[Orn-Pro-cha-Trp-Phe(4-Amidin)]
B4: Ac-Phe-[Orn-Pro-cha-Trp-Edn] (peptide)
peptide: Ac-F[Orn]P[dCha]W[Edn]
modifications: lactam (positions not given here); not fully specified (bridges); printed as Ac-Phe-[Orn-Pro-cha-Trp-Edn]
B5: Ac-Phe-[Orn-Pro-cha-Trp-2Ni] (peptide)
peptide: Ac-F[Orn]P[dCha]W[2Nal]
modifications: lactam (positions not given here); not fully specified (bridges); printed as Ac-Phe-[Orn-Pro-cha-Trp-2Ni]
B6: Ac-Phe-[Orn-Pro-cha-Trp-Pmf] (peptide)
peptide: Ac-F[Orn]P[dCha]W[Phe(4-Me)]
modifications: lactam (positions not given here); not fully specified (bridges); printed as Ac-Phe-[Orn-Pro-cha-Trp-Pmf]
B7: Ac-Phe-[Orn-Pro-cha-Trp-Dab] (peptide)
peptide: Ac-F[Orn]P[dCha]W[Dab]
modifications: lactam (positions not given here); not fully specified (bridges); printed as Ac-Phe-[Orn-Pro-cha-Trp-Dab]
B8: Ac-Phe-Orn-Ser-cha-Trp-Phe-OH (peptide)
peptide: Ac-F[Orn]S[dCha]WF-OH
SMILES: CC(=O)N[C@@H](Cc1ccccc1)C(=O)N[C@@H](CCCN)C(=O)N[C@@H](CO)C(=O)N[C@H](CC1CCCCC1)C(=O)N[C@@H](Cc1c[nH]c2ccccc12)C(=O)N[C@@H](Cc1ccccc1)C(=O)O
B9: Ac-Phe-[Orn-Pro-cha-Trp-Eag] (peptide)
peptide: Ac-F[Orn]P[dCha]W[Eag]
modifications: lactam (positions not given here); not fully specified (bridges); printed as Ac-Phe-[Orn-Pro-cha-Trp-Eag]
B10: Ac-Phe-[Orn-Pro-cha-Trp-Ala] (peptide)
peptide: Ac-F[Orn]P[dCha]WA
modifications: lactam (positions not given here); not fully specified (bridges); printed as Ac-Phe-[Orn-Pro-cha-Trp-Ala]
B11: Ac-Phe-[Orn-Pro-cha-Trp-Met] (peptide)
peptide: Ac-F[Orn]P[dCha]WM
modifications: lactam (positions not given here); not fully specified (bridges); printed as Ac-Phe-[Orn-Pro-cha-Trp-Met]
B12: Ac-Phe-[Orn-Pro-cha-Trp-Ppa] (peptide)
peptide: Ac-F[Orn]P[dCha]W[4Pal]
modifications: lactam (positions not given here); not fully specified (bridges); printed as Ac-Phe-[Orn-Pro-cha-Trp-Ppa]
B13: Ac-Phe-[Orn-Pro-cha-Trp-Ecp] (peptide)
peptide: Ac-F[Orn]P[dCha]W[Ecp]
modifications: lactam (positions not given here); not fully specified (bridges); printed as Ac-Phe-[Orn-Pro-cha-Trp-Ecp]
B14: Ac-Phe-[Orn-Pro-cha-Trp-XX2] (peptide)
peptide: Ac-F[Orn]P[dCha]W[XX2]
modifications: lactam (positions not given here); not fully specified (bridges); printed as Ac-Phe-[Orn-Pro-cha-Trp-XX2]
B15: Ac-Phe-[Orn-Pro-cha-Trp-XX1] (peptide)
peptide: Ac-F[Orn]P[dCha]W[XX1]
modifications: lactam (positions not given here); not fully specified (bridges); printed as Ac-Phe-[Orn-Pro-cha-Trp-XX1]
B16: Ac-Phe-[Orn-Pro-cha-Trp-Hle] (peptide)
peptide: Ac-F[Orn]P[dCha]W[hLeu]
modifications: lactam (positions not given here); not fully specified (bridges); printed as Ac-Phe-[Orn-Pro-cha-Trp-Hle]

Biological target: T1, human C5aR (CD88)
Test: cell-based or functional assay

IC50 activity group, enzyme release assay | Binder
≤ 50 nM | {Ph‑CH(OH)‑CH2‑CO}-[Orn]P[dCha]W[Nle] (lactam 1-C) [Ph-CH(OH)-CH2-CO-[Orn-Pro-cha-Trp-Nle]]
≤ 200 nM | FXPXWR (not fully specified; Ac-; Orn2; cha4 (D); Arg(Me2)6; cyclic [2-6]) [Ac-Phe-[Orn-Pro-cha-Trp-Arg(Me2)]]
≤ 50 nM | B1
≤ 50 nM | B2
≤ 2000 nM | B3
≤ 2000 nM | B4
≤ 50 nM | Ac-F[Orn]P[dCha]W[1Nal]-NH2 [Ac-Phe-Orn-Pro-cha-Trp-1Ni-NH2]
≤ 2000 nM | Ac-F[Orn]P[dCha]W[Phg]-NH2 [Ac-Phe-Orn-Pro-cha-Trp-Phg-NH2]
≤ 200 nM | Ac-F[Orn]P[dHch]WF-OH [Ac-Phe-Orn-Pro-hch-Trp-Phe-OH, listing 1 of 2 here]
≤ 200 nM | B5
≤ 50 nM | {Ph‑CH2}-[Orn]P[dCha]WF (lactam 1-C) [Ph-CH2-[Orn-Pro-cha-Trp-Phe]]
≤ 50 nM | B6
≤ 200 nM | B7
≤ 50 nM | {Ph‑CH2}-[Orn]P[dCha]W[Nle] (lactam 1-C) [Ph-CH2-[Orn-Pro-cha-Trp-Nle]]
≤ 2000 nM | B8
≤ 200 nM | Ac-F[Orn]P[dHch]WF-OH [Ac-Phe-Orn-Pro-hch-Trp-Phe-OH, listing 2 of 2 here]
≤ 10 nM | B9
≤ 2000 nM | Ac-F[Orn]P[dChg]WF-OH [Ac-Phe-Orn-Pro-chg-Trp-Phe-OH]
> 2000 nM | B10
≤ 200 nM | B11
≤ 200 nM | B12
≤ 200 nM | Ac-F[Orn]P[dCha]W[2Thi]-NH2 [Ac-Phe-Orn-Pro-cha-Trp-Thi-NH2]
≤ 2000 nM | B13
> 2000 nM | B14
> 2000 nM | B15
≤ 50 nM | {2‑Acetamido‑1‑Methyl‑Glucuronyl}-F[Orn]P[dCha]W[Nle] (lactam 2-C) [X-Phe-[Orn-Pro-cha-Trp-Nle]; X = 2-Acetamido-1-Methyl-Glucuronyl]
≤ 50 nM | B16
